Experimental data published in paper PMC6065307, “Structural dynamics of the transaminase active site revealed by the crystal structure of a co-factor free omega-transaminase from Vibrio fluvialis JS17” (Scientific Reports, 2018).

Target: the molecule itself
Assay: SEC-MALS; Superdex 200 HR 10/30 coupled to MALS and refractive index detectors; 20 mM Tris-HCl pH 8.0, 150 mM NaCl; measured mass 103.72 kDa against 52.79 kDa theoretical monomer

B1: ω-transaminase from Vibrio fluvialis JS17 (Vfat), apo (cofactor-free) form (enzyme, UniProt F2XBU9 1-453, looked up)
chain: MNKPQSWEARAETYSLYGFTDMPSLHQRGTVVVTHGEGPYIVDVNGRRYLDANSGLWNMVAGFDHKGLIDAAKAQYERFPGYHAFFGRMSDQTVMLSEKLVEVSPFDSGRVFYTNSGSEANDTMVKMLWFLHAAEGKPQKRKILTRWNAYHGVTAVSASMTGKPYNSVFGLPLPGFVHLTCPHYWRYGEEGETEEQFVARLARELEETIQREGADTIAGFFAEPVMGAGGVIPPAKGYFQAILPILRKYDIPVISDEVICGFGRTGNTWGCVTYDFTPDAIISSKNLTAGFFPMGAVILGPELSKRLETAIEAIEEFPHGFTASGHPVGCAIALKAIDVVMNEGLAENVRRLAPRFEERLKHIAERPNIGEYRGIGFMWALEAVKDKASKTPFDGNLSVSERIANTCTDLGLICRPLGQSVVLCPPFILTEAQMDEMFDKLEKALDKVFAEVA
notes: ω-transaminase (amine:pyruvate transaminase) from Vibrio fluvialis JS17; 'the coding region of Vfat' cloned into pET24ma; theoretical mass with the His-tag 52.79 kDa; Homodimer by MALS and in the crystal; also called apo Vfat; amine:pyruvate transaminase; source: E. coli BL21 (DE3), purified (Ni-NTA, Superdex 200 gel filtration); not shown: His-tag, C-terminal, kept
- stoichiometry N: 2
